Vmax (milli optical density/minute) data for one substance are collected here from ChEMBL document CHEMBL4396924, “Synthesis and biological evaluation of cis-restrained carbocyclic combretastatin A-4 analogs: Influence of the ring size and saturation on cytotoxic properties” (Bioorg Med Chem, 2019).

What all share (settings): Sus scrofa
Data set [1] deals with COc1ccc(C2CCC2c2cc(OC)c(OC)c(OC)c2)cc1O. In words: (§1) Inhibition of porcine brain tubulin polymerization assessed as Vmax measured every 60 secs by turbidometric assay.
Data set [2] has as its system COc1ccc(C2CCCC2c2cc(OC)c(OC)c(OC)c2)cc1O. Described as §1.
Data set [3] deals with COc1ccc(C2=C(c3cc(OC)c(OC)c(OC)c3)CC2)cc1O. The data set is described as §1.
In data set [4] the test system is COc1ccc(/C=C\c2cc(OC)c(OC)c(OC)c2)cc1O. The description is as §1.
Data set [5] has as its system COc1ccc(C2=C(c3cc(OC)c(OC)c(OC)c3)CCCC2)cc1O. Described as §1.
Data set [6] relates to COc1ccc(C2=C(c3cc(OC)c(OC)c(OC)c3)CCC2)cc1O. The data set is described as §1.
For data set [7], the system named is COC(=O)Nc1nc2cc(C(=O)c3cccs3)ccc2[nH]1. The data set is described as §1.
Data set [8] concerns COc1ccc(C2CC2c2cc(OC)c(OC)c(OC)c2)cc1N. Described as §1.
In data set [9] the test system is CC(=O)O[C@H]1C(=O)[C@@]2(C)[C@H]([C@H](OC(=O)c3ccccc3)[C@]3(O)C[C@H](OC(=O)[C@H](O)[C@@H](NC(=O)c4ccccc4)c4ccccc4)C(C)=C1C3(C)C)[C@]1(OC(C)=O)CO[C@@H]1C[C@@H]2O. Described as §1.
The subject of data set [10] is COc1ccc(C2CC2c2cc(OC)c(OC)c(OC)c2)cc1O. Described as §1.
Data set [11] deals with COc1ccc(/C=C\c2cc(OC)c(OC)c(OC)c2)cc1N. The data set is described as §1.
Data set [12] relates to COc1ccc(C2CCCCC2c2cc(OC)c(OC)c(OC)c2)cc1O. The data set is described as §1.

“Tubulin (Sus scrofa) (from UniProt P02554+P02550)”: the Vmax (milli optical density/minute) worked out at 10.4 in [1]; 12 in [2]; 9 in data set [3]; 4.4 in [4]; 16.2 in [5]; 10.6 in [6]. Moreover, the Vmax (milli optical density/minute) is 13 in data set [7]; 5.4 in [8]; 84 in [9]; 5.6 in data set [10]; 5.2 in [11]; 11.6 in data set [12].
